Molecular target: T1, mouse OAT-3 (oat3, slc22a8) (mouse, UniProt O88909 1-537)
T1 construct: whole, on cells; Expressed in HEK293T cells; coIP from lysates; not shown: myc-DDK tag of the pCMV6-Entry myc-DDK vector
T1 sequence (looked up): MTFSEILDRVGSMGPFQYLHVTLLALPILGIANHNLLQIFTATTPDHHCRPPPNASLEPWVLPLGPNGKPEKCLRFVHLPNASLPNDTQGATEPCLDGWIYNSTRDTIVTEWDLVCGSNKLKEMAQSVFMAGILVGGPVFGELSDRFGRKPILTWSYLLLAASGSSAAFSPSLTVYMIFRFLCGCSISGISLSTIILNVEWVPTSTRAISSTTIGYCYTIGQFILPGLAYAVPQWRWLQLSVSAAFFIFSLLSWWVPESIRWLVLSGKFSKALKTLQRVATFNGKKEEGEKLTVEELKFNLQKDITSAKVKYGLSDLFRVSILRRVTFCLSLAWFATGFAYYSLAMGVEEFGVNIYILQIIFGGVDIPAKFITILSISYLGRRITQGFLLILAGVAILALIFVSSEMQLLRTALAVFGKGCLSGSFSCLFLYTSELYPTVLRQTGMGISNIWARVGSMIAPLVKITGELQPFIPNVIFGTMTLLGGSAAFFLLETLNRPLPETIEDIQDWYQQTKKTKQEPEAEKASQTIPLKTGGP
Assay: coIP from HEK293T cells co-transfected with OAT-3 and IRBIT
From the text: To determine whether IRBIT regulates succinate efflux via interaction with OATs, the interaction of OAT-1 and/or OAT-3 with IRBIT was monitored by coIP. […] Succinate uptake was elevated by expression of OAT-1 alone, that was abolished by the OAT inhibitor probenecid (FIG. 6B-C). Neither IRBIT, SUCNR1 stimulation, nor inhibition of PLC by U73122 affected the OAT-mediated succinate uptake. These findings indicate that OAT-1 activity is IRBIT-independent.

- binding result: no binding
B1: IRBIT (IP3 receptor-binding protein released with IP3; S-adenosylhomocysteine hydrolase-like protein) (other)
chain: SMPDAMPLPGVGEELKQAKEIEDAEKYSFMATVTKAPKKQIQFADDMQEFTKFPTKTGRRSLSRSISQSSTDSYSSAASYTDSSDDEVSPREKQQTNSKGSSNFCVKNIKQAEFGRREIEIAEQDMSALISLRKRAQGEKPLAGAKIVGCTHITAQTAVLIETLCALGAQCRWSACNIYSTQNEVAAALAEAGVAVFAWKGESEDDFWWCIDRCVNMDGWQANMILDDGGDLTHWVYKKYPNVFKKIRGIVEESVTGVHRLYQLSKAGKLCVPAMNVNDSVTKQKFDNLYCCRESILDGLKRTTDVMFGGKQVVVCGYGEVGKGCCAALKALGAIVYITEIDPICALQACMDGFRVVKLNEVIRQVDVVITCTGNKNVVTREHLDRMKNSCIVCNMGHSNTEIDVTSLRTPELTWERVRSQVDHVIWPDGKRVVLLAEGRLLNLSCSTVPTFVLSITATTQALALIELYNAPEGRYKQDVYLLPKKMDEYVASLHLPSFDAHLTELTDDQAKYLGLNKNGPFKPNYYRY
notes: The methods say only 'IRBIT in pcDNA3.1(+)'

Source: US20200262889A1 (B G NEGEV TECHNOLOGIES AND APPLICATIONS LTD AT BEN GURION …, published 2020)
